± gives the uncertainty stated by the source.
assay: amyloid nucleation score (Sup35N fusion, yeast selection) (log enrichment); library NNK3; higher = more nucleation; inactive = no reads after selection
Summary of the method: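 Growth for 7 days at 30°C on medium lacking adenine and uracil followed a 24-hour induction with 100 μM copper sulfate of psi-negative yeast expressing peptides of 20 random codons fused to Sup35N. Input and output plasmid inserts were sequenced with Illumina, and sequences with under 100 input reads were excluded. Nucleation score is the DiMSum log enrichment of output over input reads, centred on the mode score of non-aggregating sequences.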

Row | Substance | amyloid nucleation score
1 | FRWHLCRFCWKRIFASTMLA | inactive
2 | YIVSSSD | inactive
3 | GERTVLVKGLMRCIWVPVIW | inactive
4 | GVGNWKP | inactive
5 | AHGHISCLLTYTAYWYCCV | 0.502 ± 0.19
6 | PIVRRKSPPRHYENELRGYS | inactive
7 | KTLVIYYTFKIGNILHIHLF | inactive
8 | TTQILAL | inactive
9 | VRMGVNLGNKTLNTWESSCD | inactive
10 | IFLAGDMC | inactive
11 | TLLHDSDVGMQLSGSQRFFS | inactive
12 | ESRLIISKDGRRSMSKHGGP | inactive
13 | RFACFSRGACFCNRLVMPYD | inactive
14 | KNDGKEF | inactive
15 | NLMCVNTVGLKYGPRELSNH | inactive
16 | SSRAAVY | inactive
17 | FARFSIAFMH | 0.231 ± 0.9
18 | NCRYIVAPMKQLYMGIEMVL | inactive
19 | VWCYFVQYHGIISLSFIAFR | inactive
20 | LNDGALDGQSTDALMGMEMR | inactive
21 | KVVRVIVSEGNRVIKFTTMP | inactive
22 | WNLVPSHMFFV | inactive
23 | YTVLWDLVFWGTPICYVIDN | inactive

Row | Substance | amyloid nucleation score
24 | LLDNFY | inactive
25 | RFTSVILNTSDLSKLRMGTE | 0.437 ± 0.31
26 | LLSLIT | inactive
27 | RIFWHQCGYGSIRLWGQLDR | -0.531 ± 0.83
28 | SSIHVGVYYFMCMLEDVSRE | 1.07 ± 0.14
29 | TMTRSLYSVVSFKRFNSCLV | inactive
30 | RMRLSWVMHSV | inactive
31 | GYFRWSRAFQLPWNSWSEWQ | inactive
32 | NSGNSIAVAAALDKDTLQAG | inactive
33 | KFSSMGTVSLSGKSLYSDAV | inactive
34 | VDNSYQFSLKTDSNYNIERQ | inactive
35 | MSEKASSEVKINRDAGLGAF | inactive
36 | LLMSLL | 0.09 ± 0.88
37 | SLLALNRSPVLMRYISEHCN | inactive
38 | CVSPDCMLMGAHDYGVERWL | inactive
39 | RHWTGCSNQESRTGCGACCI | inactive
40 | FLDPYSHRLSAKALYM | inactive
41 | WAAWFYASGVRASEGRDYGG | inactive
42 | MVIGNVCFIIYGSFNEE | 2.33 ± 0.089
43 | IRLFAVTAYSIVTYVRFMIG | inactive
44 | CSILACSA | inactive
45 | GWNILLNLNIEYSTLYIVNL | 2.44 ± 0.06
46 | SMFMLCVSADGEFFNCGTNH | inactive

Row | Substance | amyloid nucleation score
47 | CIRVKHFCISHEDKR | inactive
48 | RRVLTARDWVCH | inactive
49 | ILQYRYKGWNRKGYHQQPVI | inactive
50 | LLCVDSTKTMIAYD | inactive
51 | VEFTN | inactive
52 | YIISRFYMAVWGDKPLYTGL | inactive
53 | CAYPVKKCMPYQYMKKFVLV | inactive
54 | VLAGACDYPYGNVLV | inactive
55 | VFTFAWMLNRVISNYHPTIP | inactive
56 | TKGLDILDGVCVGCLRCQVD | inactive
57 | STDNVGMGKGWTGVIGWRVM | inactive
58 | GRSFCVAMVVIEGVLYRDLS | 0.441 ± 0.32
59 | GWWRSFPLQFKSPVYLNRLC | inactive
60 | PLSSSLGWVCL | inactive
61 | IYISFWR | 0.521 ± 0.2
62 | VWCTSVVT | -0.149 ± 0.28
63 | KFEGLF | inactive
64 | GGQVRDCDNVEQCSATNSEG | inactive
65 | RNKHYVGRQSVSDSRVLSIV | inactive
66 | SWYDVRSVPKSMVAMMGWRL | inactive
67 | SSFYCRAFGDRNVWKWQWCL | inactive
68 | CCLFADCDLRYFSNRTFFNC | inactive
69 | TWFLTPLNTFIFLLVPLFGL | inactive

Row | Substance | amyloid nucleation score
70 | LNRANNGVVYQMGVRDFQSS | inactive
71 | GSIVFGCSWASQSVCQDQWV | inactive
72 | LHTMGMSVGGMAMNKIDCPN | inactive
73 | ELGGFFNEAGVTNHPIMS | inactive
74 | RNWLMANS | inactive
75 | RLLVTLQ | inactive
76 | WNLSSFININPSYYSDTWHG | 2.08 ± 0.071
77 | HWIHGRR | inactive
78 | CNLRMCNGA | inactive
79 | SLLNSNHHGRVMQPRRINSD | inactive
80 | SQLKMSYRHYPMMMCVIVFS | inactive
81 | GGYVDLRLMT | inactive
82 | LWEVRSEPDPDSSNKLLSRE | 0.136 ± 0.39
83 | FAQFLG | inactive
84 | FTWSVHKVDEVCHLLETGDA | inactive
85 | VIGRVRIGLVFRSTIGFSEG | inactive
86 | LDWCAYWVSVISRWN | inactive
87 | MLVATL | inactive
88 | ISWNLRGVVLLTYTICSWCI | inactive
89 | SYSLPMQKRCCIGIGEAGWN | -0.354 ± 0.82
90 | VKTWCYRCCSGALSLS | inactive
91 | LRSRKWSSTVSCEYSANGLR | inactive
92 | ATRTNYCACPLLMARWMSVL | inactive

Row | Substance | amyloid nucleation score
93 | SLMNHLSGTKVMLGRLRYSN | inactive
94 | YIMCCGV | 1.61 ± 0.073
95 | DDDRGGSTMTATHRRRMWHL | inactive
96 | RYDTNSRVRIIVSNF | inactive
97 | GSMIFFSICSHFLYLLHTYT | inactive
98 | IPNMDAFLERRPREYNWPVA | inactive
99 | IAVPRWKDSDTQKVV | inactive
100 | SCDLFSC | inactive
101 | WDYILGFGHVSQRARMESFD | inactive
102 | CVADHLSCISTRGNCCYMSG | 0.473 ± 0.26
103 | KGGCW | inactive
104 | FMIFDWVTYIKVTVKCWW | inactive
105 | CWRVCGARYLWA | inactive
106 | HCVMNNVAWVLRYTDRRDAL | 1.2 ± 0.091
107 | WAHLGLDNMYKVLCSRGANA | inactive
108 | WSMSDFAALIGWIDALGLEL | inactive
109 | ATAPYDTVCRLYCLSWPPRS | inactive
110 | YKPLFVCSRHLMNRELCTGY | inactive
111 | TLNRLTKKHCFGNFWLYSAW | inactive
112 | KSSSAYNRSDHGLMLDRRTQ | inactive
113 | FFRIVSLCSSPGNGEDKDRL | inactive
114 | FERSMHFENRDSDPCYIVRF | inactive
115 | LIRRSWSYCVLVSCTDGSHS | inactive

Row | Substance | amyloid nucleation score
116 | MSGSRWRSTNFTCNNLWFDR | -1.07 ± 1.1
117 | YSYIEGL | inactive
118 | YYNAGAGKRRYNRSVRGSLK | inactive
119 | LYGISL | inactive
120 | VECCNGLCDDVLGAVGNLGL | inactive
121 | YRFVRGWFRMRIERPAAPCT | inactive
122 | FYVRVALRVSLLLWSGFTWV | inactive
123 | QLWNWVFYYISNILGKGMHL | inactive
124 | GSVFTRFVSREVFCWDACCR | inactive
125 | IGIIFSKVWSPPDDMHT | 1.28 ± 0.095
126 | SVTLGWSTRCCF | 1.27 ± 0.096
127 | LLTFALIL | 0.462 ± 0.19
128 | PRCVC | inactive
129 | FSRSTTDVSINSGWKM | inactive
130 | PSLRLQTTDILHKNSNY | inactive
131 | LLMKMHDAIAG | inactive
132 | LSLTRNSH | inactive
133 | GGCHNGCGFYCRRN | inactive
134 | SSYSWMGVFIYLDRIINYTH | -0.339 ± 0.63
135 | AFSFPSERVWVWNFHMRDKE | 3.11 ± 0.058
136 | SEARCA | inactive
137 | LESFWFMTGFF | inactive
138 | QWVSLGLVGVGQ | inactive

Row | Substance | amyloid nucleation score
139 | AKSMVWNGGVWYLFQEYARG | inactive
140 | RPGYHSVVKHAKRLVEVNR | inactive
141 | TFGHWAMYVSCWDRVVCGVD | inactive
142 | VLIYRRGFNYLRVLCCTTGF | inactive
143 | VENKMFDRGGFYVWMCGLSD | inactive
144 | MYFSFLW | 0.18 ± 0.47
145 | GYKGR | inactive
146 | FSSMVNVYSLLKVFF | inactive
147 | SLLDGTYYNTI | inactive
148 | NFSIRCTWLVVNNAVDLRDN | 2.94 ± 0.049
149 | WILYSMMQLSMMFKSMYSVT | inactive
150 | LSSWEIVSSLSHWNVYVIAR | inactive
151 | FVVGHENNFLKFANSLSRL | inactive
152 | VRVSNYTRVLVYKDRVS | inactive
153 | GDVRLFTCRMLGILFFSIT | inactive
154 | YRPRGERLRFMYCY | inactive
155 | FVTRHLNFCM | inactive
156 | KNQYSNSRLWYGALECHAPG | inactive
157 | ALVRGIVSTPDSRM | inactive
158 | TYENDLC | inactive
159 | VIPARADATGPKEHGWLQLQ | inactive
